The results in this text go back to PMC6439349.

Assay [1] has as its target TioK-KtzJ complex (not stated | Kutzneria sp. 744). The assay is described as follows: AUC.
In assay [2] the target is TioK-Ecm8 complex (not stated | Streptomyces lasaliensis). The assay is described as follows: AUC.
Assay [3] has as its target TioK. In words: AUC.
The target in assay [4] is TioK-MyavAcA complex (not stated | Mycobacterium avium). The assay is described as follows: AUC.
The target of assay [5] is TioK-MypaAaA complex (not stated | Mycobacterium paratuberculosis). In words: AUC.
In assay [6] the target is TioK-MymaAcA complex (not stated | Mycobacterium marinum). The assay is described as follows: AUC.
For assay [7], the target named is TioK-MbtH complex (not stated | Mycobacterium tuberculosis H37Rv) (UniProt P9WIP4). In words: […].
For assay [8], the target named is TioK-TioT complex (UniProt Q333U6). In words: AUC.
Assay [9] addresses TioK-MyabAaA complex (not stated | Mycobacterium abscessus). The assay is described as follows: AUC.
Assay [10] has as its target TioK. In words: […].

A word on the stoichiometry N: it is a count of units in the complex or per binding partner.

Take TioK-KtzJ complex: the stoichiometry N (multiple of MW(1:1)) in assay [1] was 1.92.
In the case of TioK-Ecm8 complex, in assay [2], the stoichiometry N (multiple of MW(1:1)) was found to be 1.93.
In [3], Ecm8 (natural protein) displayed an approximate mole fraction of TioK-MLP complex of 0.76 and a stoichiometry N of 1 MLP per TioK.
On to TioK-MyavAcA complex, for which the stoichiometry N (multiple of MW(1:1)) in assay [4] was found to be 1.96.
In turn, TioK-MypaAaA complex showed a stoichiometry N (multiple of MW(1:1)) in assay [5] of 2.05.
Take TioK-MymaAcA complex: the stoichiometry N (multiple of MW(1:1)) in assay [6] amounted to 1.94.
In turn, “TioK-MbtH complex (from UniProt P9WIP4 1-71)” displayed a stoichiometry N (multiple of MW(1:1)) in assay [7] of 2.06.
On to “PA2412 (from UniProt Q9I169 1-72) (natural protein)”, for which, in assay [3], the approximate mole fraction of TioK-MLP complex is 0.87 and the stoichiometry N turned out to be 1 MLP per TioK.
In [3], KtzJ (natural protein) had an approximate mole fraction of TioK-MLP complex of 0.92 and a stoichiometry N of 1 MLP per TioK.
In [8], “TioK-TioT complex (from UniProt Q333U6 1-71)” displayed a stoichiometry N (multiple of MW(1:1)) of 1.98.
The molecule TioK-MyabAaA complex had a stoichiometry N (multiple of MW(1:1)) in assay [9] of 1.96.

B1: TioT (natural protein)
chain: MSVNPFDDEDGEFYVLVNDEEQHSLWPTFGDVPDGWRIVFGPAGRAESVAYVEENWTDMRPKSLREAMSAA
In [3], B1 had an approximate mole fraction of TioK-MLP complex of 0.88 and a stoichiometry N of 1 MLP per TioK.

B2: MbtH (natural protein)
chain: MSTNPFDDDNGAFFVLVNDEDQHSLWPVFADIPAGWRVVHGEASRAACLDYVEKNWTDLRPKSLRDAMAED
Regarding B2, in [10], the approximate mole fraction of TioK-MLP complex worked out at 0.82 and the stoichiometry N turned out to be 1 MLP per TioK.

B3: CouY (natural protein)
chain: MATNPFDDENGVYLLLVNDEGQHSLWPSFAALPKGWTVILDEASRQECLDYVNEHWTDMRPLSLQPAMGDE
Take B3: in assay [3], the approximate mole fraction of TioK-MLP complex was 0.84 and the stoichiometry N is 1 MLP per TioK.
